Like-named read-outs stand apart in the source and are kept apart here.
Legend:
Human CD48 on cells [1] = target: T1, Human CD48 on cells (human, UniProt P09326 27-220); assay: cell-based or functional assay
T1 sequence: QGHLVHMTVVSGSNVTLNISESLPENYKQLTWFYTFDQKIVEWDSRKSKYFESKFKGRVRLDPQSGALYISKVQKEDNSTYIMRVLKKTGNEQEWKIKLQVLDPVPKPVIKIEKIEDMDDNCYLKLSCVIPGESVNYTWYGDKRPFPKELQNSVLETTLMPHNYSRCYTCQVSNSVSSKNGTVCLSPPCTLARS

[2] = target: T2, Cynomolgus CD48 (soluble recombinant, SPR analyte) (cynomolgus monkey (Macaca fascicularis), UniProt P09326 30-225 (human entry)); assay: SPR Biacore T200, antibody captured on protein A chip, soluble CD48 as analyte, 25 C, 1:1 model
T2 construct: also called cyno CD48; Cyno CD48; not shown: C-terminal tag (hFc1P, APP6-Avi or His) is not specified for the analyte
T2 chain: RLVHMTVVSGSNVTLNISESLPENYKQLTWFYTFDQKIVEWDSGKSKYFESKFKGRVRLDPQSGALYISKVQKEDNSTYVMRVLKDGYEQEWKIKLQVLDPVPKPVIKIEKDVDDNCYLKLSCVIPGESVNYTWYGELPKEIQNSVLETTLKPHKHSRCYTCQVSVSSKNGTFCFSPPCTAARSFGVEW
Experimental: (§1) HBS-EP+pH 7.4 containing 10 mM HEPES, 150 mM NaCl, 3 mM EDTA and 0.05% (v/v) surfactant P20 (Teknova, ordering #H8022) was used as running buffer as well as for sample dilution.
(§2) The anti-CD48 antibodies were diluted at 5 μg/ml and injected on flow cells 2 and 4 for 20 sec at 10 μl/min. Capture level for all antibodies was 370-440 RU. Flow cells 1 and 3 were left blank (no antibody captured) and used as a reference surface. Human and cynomolgus CD48 served as analytes in solution. […] After each cycle of antibody capture and analyte injection, the chip surface was regenerated with 10 mM Glycine-HCl pH 1.5 (Cytiva, ordering #BR100354) for 2×30 s at a flow rate of 50 μl/min. Three runs with duplicate measurements and buffer blank injections were performed. Measurements were executed at 25° C. and data collected at a rate of 10 Hz.
(§3) Data were evaluated using the Biacore 8K evaluation software. The raw data were double referenced, i.e. the response of the measuring flow cells was corrected for the response of the reference flow cells (no antibody captured), and in a second step the response of a blank injection (buffer) was subtracted. Finally, the sensorgrams were fitted by applying a 1:1 interaction model with a constant fit of RI (0) and a global fit for Rₘₐₓ. Kinetic rate constants (kₐ, kd) and equilibrium dissociation constants (KD) were calculated. Data were processed separately for each run. The generated values were used to calculate average values and standard deviations of the respective equilibrium dissociation constants and the kinetic rate constants.

[3] = target: T3, Human CD48 (soluble recombinant, SPR analyte) (human, UniProt P09326 27-220); assay: as above
T3 construct: also called Human CD48 antigen; not shown: C-terminal tag (hFc1P, APP6-Avi or His) is not specified for the analyte
T3 sequence: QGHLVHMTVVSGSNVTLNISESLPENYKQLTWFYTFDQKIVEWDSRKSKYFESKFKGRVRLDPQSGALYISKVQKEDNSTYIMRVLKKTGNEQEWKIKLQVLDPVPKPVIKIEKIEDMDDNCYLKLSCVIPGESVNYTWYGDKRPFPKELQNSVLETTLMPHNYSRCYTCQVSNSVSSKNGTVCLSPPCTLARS
Experimental: as §1, §2, §3

Human CD48 on cells [4] = target: T1, Human CD48 on cells; assay: cell-based or functional assay; remark: listed apart in the source
[5] = target: T2, Cynomolgus CD48 (soluble recombinant, …); assay: SPR Biacore T200, antibody captured on Protein A chip, soluble CD48 as analyte, 1:1 model, Exp 2
Experimental: (§4) Binding to human and cyno CD48 for the WT IgG and DAPA (D265A and P329A mutation) variant was assessed for affinity determinations using Biacore. Kinetic rate constants was performed via SPR using the Biacore T200 instrument (Cytiva, formerly GE Healthcare Lifesciences) as described below.
(§5) The Protein A capture method was utilized in order to determine kinetics for the antibodies. […] The human CD48 and cyno CD48 concentration started at 50 nM and 200 nM respectively, and were serially diluted at one part to one part for nine concentrations. Regeneration was performed at the end of each concentration washing with the Glycine pH1.5 (Cytiva, cat #BR100354).
(§6) Double reference subtraction was completed to generate the final data. The raw data was fitted to a 1:1 binding model, with parameter(s) Rmax set to local.

[6] = target: T3, Human CD48 (soluble recombinant, SPR …); assay: as above
Experimental: as §4, §5, §6

[7] = target: T2, Cynomolgus CD48 (soluble recombinant, …); assay: SPR Biacore T200, antibody captured on Protein A chip, soluble CD48 as analyte, 1:1 model, Exp 1
Experimental: as §4, §5, §6

[8] = target: T3, Human CD48 (soluble recombinant, SPR …); assay: as above
Experimental: as §4, §5, §6

B1: NY938 (antibody, human IgG1, kappa)
heavy: not shown
light: DIQMTQSPSSLSASVGDRVTITCKASQDVGTAVAWYQQKPGKVPKLLIYWASTRHTGVPSRFSGSGSGTDFTLTISSLQPEDVATYYCQQYSTYPITFGQGTKLEIKRTVAAPSVFIFPPSDEQLKSGTASVVCLLNNFYPREAKVQWKVDNALQSGNSQESVTEQDSKDSTYSLSSTLTLSKADYEKHKVYACEVTHQGLSSPVTKSFNRGEC
notes: also called anti-CD48-NY938-hIgG1_kappa (a-fuc); NY938-IgG
IC50 (nM), cell proliferation/survival (CellTiter-Glo), KMS-21-BM, with anti-human Fc-VC-MMAE (Human CD48 on cells [1]): 0.008 nM
IC50 (nM), cell proliferation/survival (CellTiter-Glo), KMS-27, with anti-human Fc-VC-MMAE (Human CD48 on cells [1]): < 0.001 nM
IC50 (nM), cell proliferation/survival (CellTiter-Glo), NCI-H929, with anti-human Fc-VC-MMAE (Human CD48 on cells [1]): 0.004 nM
Span (Amax), KMS-21-BM, with anti-human Fc-VC-MMAE (Human CD48 on cells [1]): 98.9
Span (Amax), KMS-27, with anti-human Fc-VC-MMAE (Human CD48 on cells [1]): > 100
Span (Amax), NCI-H929, with anti-human Fc-VC-MMAE (Human CD48 on cells [1]): 99.7
Kd [2]: 1.5 nM
koff [2]: 0.00037 s⁻¹
kon [2]: 250000 M⁻¹ s⁻¹
Kd [3]: 0.5 nM
koff [3]: 0.00013 s⁻¹
kon [3]: 250000 M⁻¹ s⁻¹

B2: NY938-DAPA-VC-MMAE (antibody, human IgG1, kappa)
heavy: QVQLVQSGAEVKKPGASVKVSCKASGYTFTEYTMHWVRQAPGQGLEWMGGINPDTGDTSYNQKFTGRATLTVDKSTSTAYMELSSLRSEDTAVYYCARAQFWTTPRFAYWGQGTLVTVSSASTKGPSVFPLAPSSKSTSGGTAALGCLVKDYFPCPVTVSWNSGALTSGVHTFPAVLQSSGLYSLSSVVTVPSSSLGTQTYICNVNHKPSNTKVDKRVEPKSCDKTHTCPPCPAPELLGGPSVFLFPPKPKDTLMISRTPEVTCVVVAVSHEDPEVKFNWYVDGVEVHNAKTKPREEQYNSTYRVVSVLTVLHQDWLNGKEYKCKVSNKALAAPIEKTISKAKGQPREPQVYTLPPSREEMTKNQVSLTCLVKGFYPCDIAVEWESNGQPENNYKTTPPVLDSDGSFFLYSKLTVDKSRWQQGNVFSCSVMHEALHNHYTQKSLSLSPGK
light: DIQMTQSPSSLSASVGDRVTITCKASQDVGTAVAWYQQKPGKVPKLLIYWASTRHTGVPSRFSGSGSGTDFTLTISSLQPEDVATYYCQQYSTYPITFGQGTKLEIKRTVAAPSVFIFPPSDEQLKSGTASVVCLLNNFYPREAKVQWKVDNALQSGNSQESVTEQDSKDSTYSLSSTLTLSKADYEKHKVYACEVTHQGLSSPVTKSFNRGEC
modifications: VC-MMAE (MC-valcit-PAB-MMAE) on the engineered cysteines (E152C, S375C, EU numbering)
Amax (Span), KMS-20 (Human CD48 on cells [4]): 99.8
Amax (Span), KMS-21-BM (Human CD48 on cells [4]): 105
Amax (Span), KMS-27 (Human CD48 on cells [4]): 108
Amax (Span), NCI-H929 (Human CD48 on cells [4]): 105
IC50 (nM), cell proliferation/survival (CellTiter-Glo), KMS-20 (Human CD48 on cells [4]): 0.037 nM
IC50 (nM), cell proliferation/survival (CellTiter-Glo), KMS-21-BM (Human CD48 on cells [4]): 0.021 nM
IC50 (nM), cell proliferation/survival (CellTiter-Glo), KMS-27 (Human CD48 on cells [4]): 0.014 nM
IC50 (nM), cell proliferation/survival (CellTiter-Glo), NCI-H929 (Human CD48 on cells [4]): 0.016 nM

B3: NY938-CysMab-VC-MMAE (antibody, human IgG1, kappa)
heavy: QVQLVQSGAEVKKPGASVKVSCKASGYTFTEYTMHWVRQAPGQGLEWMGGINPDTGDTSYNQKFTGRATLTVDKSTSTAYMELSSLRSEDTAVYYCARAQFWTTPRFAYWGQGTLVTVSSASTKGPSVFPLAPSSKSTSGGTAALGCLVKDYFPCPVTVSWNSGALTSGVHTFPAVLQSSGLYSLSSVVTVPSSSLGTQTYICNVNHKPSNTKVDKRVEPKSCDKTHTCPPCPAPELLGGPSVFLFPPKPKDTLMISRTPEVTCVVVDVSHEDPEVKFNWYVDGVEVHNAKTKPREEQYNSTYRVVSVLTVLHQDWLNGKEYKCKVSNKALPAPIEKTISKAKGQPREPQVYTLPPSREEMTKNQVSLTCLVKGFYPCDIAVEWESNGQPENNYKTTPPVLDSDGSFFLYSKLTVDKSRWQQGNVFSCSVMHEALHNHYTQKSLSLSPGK
light: DIQMTQSPSSLSASVGDRVTITCKASQDVGTAVAWYQQKPGKVPKLLIYWASTRHTGVPSRFSGSGSGTDFTLTISSLQPEDVATYYCQQYSTYPITFGQGTKLEIKRTVAAPSVFIFPPSDEQLKSGTASVVCLLNNFYPREAKVQWKVDNALQSGNSQESVTEQDSKDSTYSLSSTLTLSKADYEKHKVYACEVTHQGLSSPVTKSFNRGEC
modifications: VC-MMAE (MC-valcit-PAB-MMAE) on the engineered cysteines (E152C, S375C, EU numbering)
Amax (Span), KMS-20 (Human CD48 on cells [4]): 99.2
Amax (Span), KMS-21-BM (Human CD48 on cells [4]): 105
Amax (Span), KMS-27 (Human CD48 on cells [4]): 98.6
Amax (Span), NCI-H929 (Human CD48 on cells [4]): 101
IC50 (nM), cell proliferation/survival (CellTiter-Glo), KMS-20 (Human CD48 on cells [4]): 0.043 nM
IC50 (nM), cell proliferation/survival (CellTiter-Glo), KMS-21-BM (Human CD48 on cells [4]): 0.021 nM
IC50 (nM), cell proliferation/survival (CellTiter-Glo), KMS-27 (Human CD48 on cells [4]): 0.017 nM
IC50 (nM), cell proliferation/survival (CellTiter-Glo), NCI-H929 (Human CD48 on cells [4]): 0.018 nM

B4: NY938 DAPA (antibody, human IgG1, kappa, name in EU numbering)
heavy: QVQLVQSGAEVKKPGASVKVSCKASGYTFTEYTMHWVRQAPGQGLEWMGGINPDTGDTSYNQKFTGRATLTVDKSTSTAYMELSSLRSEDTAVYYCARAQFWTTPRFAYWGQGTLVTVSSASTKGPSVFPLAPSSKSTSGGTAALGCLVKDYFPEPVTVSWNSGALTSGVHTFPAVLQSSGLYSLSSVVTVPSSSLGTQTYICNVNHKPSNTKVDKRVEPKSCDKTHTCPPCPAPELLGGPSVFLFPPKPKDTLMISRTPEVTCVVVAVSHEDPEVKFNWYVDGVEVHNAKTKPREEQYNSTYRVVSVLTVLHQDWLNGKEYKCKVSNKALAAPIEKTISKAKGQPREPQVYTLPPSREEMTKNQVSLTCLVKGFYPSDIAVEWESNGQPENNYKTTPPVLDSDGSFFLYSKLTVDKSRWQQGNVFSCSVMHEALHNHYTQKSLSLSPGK
light: DIQMTQSPSSLSASVGDRVTITCKASQDVGTAVAWYQQKPGKVPKLLIYWASTRHTGVPSRFSGSGSGTDFTLTISSLQPEDVATYYCQQYSTYPITFGQGTKLEIKRTVAAPSVFIFPPSDEQLKSGTASVVCLLNNFYPREAKVQWKVDNALQSGNSQESVTEQDSKDSTYSLSSTLTLSKADYEKHKVYACEVTHQGLSSPVTKSFNRGEC
notes: Positions are EU numbers; also called NY938 DAPA IgG variant
Kd [5]: 0.774 nM
koff [5]: 0.000316 s⁻¹
kon [5]: 409000 M⁻¹ s⁻¹
Kd [6]: 0.252 nM
koff [6]: 0.000115 s⁻¹
kon [6]: 456000 M⁻¹ s⁻¹
Kd [7]: 1.07 nM
koff [7]: 0.000289 s⁻¹
kon [7]: 271000 M⁻¹ s⁻¹
Kd [8]: 0.296 nM
koff [8]: 0.000104 s⁻¹
kon [8]: 352000 M⁻¹ s⁻¹

B5: NY920-DAPA-VC-MMAE (antibody, human IgG1, kappa)
heavy: EVQLLESGGGLVQPGGSLRLSCAASGFTFSSFAMSWVRQAPGKGLEWVSAISGFGGSTYYADSVKGRFTISRDNSKNTLYLQMNSLRAEDTAVYYCARQFWEDQPFYFDYWGQGTLVTVSSASTKGPSVFPLAPSSKSTSGGTAALGCLVKDYFPCPVTVSWNSGALTSGVHTFPAVLQSSGLYSLSSVVTVPSSSLGTQTYICNVNHKPSNTKVDKRVEPKSCDKTHTCPPCPAPELLGGPSVFLFPPKPKDTLMISRTPEVTCVVVAVSHEDPEVKFNWYVDGVEVHNAKTKPREEQYNSTYRVVSVLTVLHQDWLNGKEYKCKVSNKALAAPIEKTISKAKGQPREPQVYTLPPSREEMTKNQVSLTCLVKGFYPCDIAVEWESNGQPENNYKTTPPVLDSDGSFFLYSKLTVDKSRWQQGNVFSCSVMHEALHNHYTQKSLSLSPGK
light: not shown
modifications: VC-MMAE (MC-valcit-PAB-MMAE) on the engineered cysteines (E152C, S375C, EU numbering)
Amax (Span), KMS-20 (Human CD48 on cells [4]): 94
Amax (Span), KMS-21-BM (Human CD48 on cells [4]): 92.9
Amax (Span), KMS-27 (Human CD48 on cells [4]): 83.9
Amax (Span), NCI-H929 (Human CD48 on cells [4]): 89.7
IC50 (nM), cell proliferation/survival (CellTiter-Glo), KMS-20 (Human CD48 on cells [4]): 0.077 nM
IC50 (nM), cell proliferation/survival (CellTiter-Glo), KMS-21-BM (Human CD48 on cells [4]): 0.026 nM
IC50 (nM), cell proliferation/survival (CellTiter-Glo), KMS-27 (Human CD48 on cells [4]): 0.028 nM
IC50 (nM), cell proliferation/survival (CellTiter-Glo), NCI-H929 (Human CD48 on cells [4]): 0.027 nM

B6: CD48A-CysMab-VC-MMAE (antibody, human IgG1, kappa)
heavy: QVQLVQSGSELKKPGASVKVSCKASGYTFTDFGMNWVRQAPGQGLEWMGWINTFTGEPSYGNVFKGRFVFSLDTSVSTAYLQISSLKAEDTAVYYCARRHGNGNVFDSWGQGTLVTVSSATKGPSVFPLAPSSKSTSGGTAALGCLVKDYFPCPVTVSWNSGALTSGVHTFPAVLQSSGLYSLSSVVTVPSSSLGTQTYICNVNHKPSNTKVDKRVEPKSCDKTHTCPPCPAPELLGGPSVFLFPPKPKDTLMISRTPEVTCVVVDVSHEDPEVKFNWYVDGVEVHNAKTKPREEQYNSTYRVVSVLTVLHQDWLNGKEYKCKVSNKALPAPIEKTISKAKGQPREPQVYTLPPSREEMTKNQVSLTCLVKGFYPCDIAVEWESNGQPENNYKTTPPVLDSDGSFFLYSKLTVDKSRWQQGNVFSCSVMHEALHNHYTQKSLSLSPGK
light: EIVLTQSPDFQSVTPKEKVTITCRASQSIGSNIHWYQQKPDQSPKLLIKYTSESISGVPSRFSGSGSGTDFTLTINSLEAEDAATYYCQQSNSWPLTFGGGTKVEIKRTVAAPSVFIFPPSDEQLKSGTASVVCLLNNFYPREAKVQWKVDNALQSGNSQESVTEQDSKDSTYSLSSTLTLSKADYEKHKVYACEVTHQGLSSPVTKSFNRGEC
modifications: MC-valcit-PAB-MMAE on the engineered cysteines (CysMab: E152C, S375C, EU numbering); DAR 3.9
IC50 (nM), cell proliferation/survival (CellTiter-Glo), KMS-21-BM (Human CD48 on cells [1]): 0.062 nM
IC50 (nM), cell proliferation/survival (CellTiter-Glo), KMS-27 (Human CD48 on cells [1]): 6.1 nM
IC50 (nM), cell proliferation/survival (CellTiter-Glo), NCI-H929 (Human CD48 on cells [1]): 2.1 nM

From patent US20220162308A1 (Novartis, published 2022)
